Measurements from paper PMC3404820.

Biological target: amphiphilic diblock polypeptide (ADP) derived from elastin-mimetic sequences, unlabeled
Experiment: dynamic light scattering

B1: amphiphilic diblock polypeptide (ADP) derived from elastin-mimetic sequences, unlabeled (protein)
chain: VPGVGVPGEGVPGVGVPGEGVPGVGVPGVGVPGEGVPGVGVPGEGVPGVGVPGVGVPGEGVPGVGVPGEGVPGVGVPGVGVPGEGVPGVGVPGEGVPGVGVPGVGVPGEGVPGVGVPGEGVPGVGVPGVGVPGEGVPGVGVPGEGVPGVGVPGVGVPGEGVPGVGVPGEGVPGVGVPGVGVPGEGVPGVGVPGEGVPGVGVPGVGVPGEGVPGVGVPGEGVPGVGVPGVGVPGEGVPGVGVPGEGVPGVGIPGVGIPGVGVPGYGIPGVGIPGVGIPGVGIPGVGVPGYGIPGVGIPGVGIPGVGIPGVGVPGYGIPGVGIPGVGIPGVGIPGVGVPGYGIPGVGIPGVGIPGVGIPGVGVPGYGIPGVGIPGVGIPGVGIPGVGVPGYGIPGVGIPGVGIPGVGIPGVGVPGYGIPGVGIPGVGIPGVGIPGVGVPGYGIPGVGIPGVGIPGVGIPGVGVPGYGIPGVGIPGVGIPGVGIPGVGVPGYGIPGVGIPGVGIPGVGIPGVGVPGYGIPGVGIPGVGIPGVGIPGVGVPGYGIPGVGIPGVGIPGVGIPGVGVPGYGIPGVGIPGVGIPGVGIPGVGVPGYGIPGVGIPGVGIPGVGIPGVGVPGYGIPGVGIPGVG
modifications: not checked
  stoichiometry N (chains per micelle): 106
